Test results reported in the Human Domainome abundance scans (Beltran et al. 2025).

B1: Metastasis-associated protein MTA3, residues 265 to 317; numbered along this chain, Q9BTC8 (parent)
chain: RDEMEEWSASEASLFEEALEKYGKDFNDIRQDFLPWKSLTSIIEYYYMWKTTD

Variants of: B1
Experiment: abundance fitness (aPCA) (normalised: wild type 0, dead -1); higher = more abundant; growth selection in yeast, the domain comes from the species named
Settings: Homo sapiens

Abundance fitness of substitutions, site by site:
A12: Q 0.215 | S -0.436 | V 0.076 | R 0.22 | W -0.816 | P -0.805 | Y -0.768 | T -0.238
D28: T 0.59 | M 0.331 | L 0.978 | N -0.112 | C 0.882 | W 0.035 | K 0.9 | A 0.861 | I 0.324 | P -0.522 | G 0.079 | E 0.305 | Q 1.19 | R 0.549 | F -0.015 | S 0.644 | Y 0.322
L14: F -0.842 | A -0.396 | P -0.872 | W -0.956 | K -0.168 | I -0.444 | E -1 | Q -0.68 | N -0.639 | Y -0.353 | H -0.945 | G -0.866 | V -0.686 | D -0.723 | R -0.602 | M -0.688
E20: A 0.007 | C -0.682 | D -0.283 | P -0.864 | I -0.267 | H -0.499 | G -0.321 | F -0.54 | W -0.613 | Y -0.506 | N -0.303 | L -0.126 | V -0.213 | M -0.561 | S -0.366 | T -0.262
E16: P -0.621 | Q 0.023 | S -0.324 | W -0.504 | Y -0.185 | A -0.119 | M -0.608 | I -0.693 | L -0.557 | F -0.422 | K -0.359 | R -0.427 | T -0.686 | N -0.632 | G -0.907 | D -0.572 | V -0.589 | H -0.202 | C -0.725
N27: D 0.074 | W -0.635 | S 0.037 | E 0.431 | Y -0.305 | L -0.602 | T -0.148 | I 0.743 | V -0.246 | M -0.464 | Q -0.075 | A -0.015
L39: T -0.389 | D -0.483 | E -0.865 | S -0.581 | C -0.733 | M -0.541 | V -0.327 | G -0.896 | R -0.348 | A -0.6
S38: L -0.69 | G 0.47 | W -0.992 | K -0.852 | D -0.71 | C -0.995 | I -0.629 | R -0.749 | E 0.047 | V -0.821 | P -0.563 | M -0.159 | Y -0.711 | H -0.425 | Q -0.393 | F -0.844
T40: C -0.328 | N 0.129 | G -0.188 | I -0.771 | F -0.875 | D 0.195 | L -0.827 | H -0.138 | A -0.322 | M -0.435
L19: H -0.525 | M -0.255 | V 0.113 | Y 0.49 | I 0.027 | W 0.043 | T -0.581 | N -0.785 | G 0.002 | R -0.607 | Q -0.34 | F 0.459 | K -0.838 | S -0.722 | A -0.67 | D -0.92 | C -1.03 | E -0.809
S13: D -0.326 | I -0.527 | T -0.212 | C -0.134 | K 0.502 | M 0.128 | E 0.158 | N -0.261 | F -0.436 | W -0.689 | Y -0.631 | V 0.066 | H -0.242 | G -0.015 | L -0.045
K21: M -0.763 | S -0.745 | G -0.842 | W -0.801 | F -0.504 | Y -0.571 | V -0.444 | H -0.674 | Q -0.685 | I -0.418 | L -0.483 | T -0.443 | R -0.381 | P -0.804 | D -0.579 | C -0.683 | N -0.984 | E -0.867
D25: K 0.375 | E -0.087 | G -0.47 | T -0.838 | I -0.162 | M -0.25 | Y -0.392 | W -0.776 | A 0.556 | S 0.366 | L -0.741 | Q 0.088 | C -0.026 | V -0.818 | H -0.125 | F -0.594 | N 0.356
Y22: D -1.07 | G -0.625 | T -0.599 | S -0.53 | A -0.687 | C 0.26 | K -0.72 | I 0.078 | E -0.856 | L -0.536 | N -0.712 | M -0.792 | P -0.707 | W -0.84 | R -0.2 | V 0.068 | Q -0.921 | H -0.079
W36: N -0.177 | G -0.484 | C -0.733 | R -0.58 | M -0.677 | I -0.874 | H -0.239 | S -0.645 | Q -0.422 | Y -0.615 | E -0.884 | A -0.788 | K -0.217 | L -0.749 | V -0.657 | T -0.696
F15: M -0.528 | S -0.543 | R -0.485 | Q -0.217 | T -0.851 | V -0.316 | G -0.788 | D -0.578 | P -0.918 | W -1.02 | H 0.397 | N -0.969 | Y -1.15 | K -0.86 | A -0.861 | I -0.836 | L -0.697 | E -0.695
K37: W -0.84 | F -0.785 | Y -0.806 | P -0.877 | H -0.941 | G -0.812 | N -0.803 | E -0.806 | C -0.763 | D -0.707 | V -0.842 | M -0.719 | R -0.398 | T -0.88 | L -0.802 | S -0.65 | I -0.586
K24: H -0.362 | I -0.536 | V -0.217 | Q -0.062 | A 0.104 | E -0.133 | S -0.108 | F -0.992 | G -0.208 | Y -0.331 | P 0.307 | W -0.935 | L -0.006 | D -0.165 | C 0.163 | N 0.333 | R -0.151
G23: S -0.792 | V -0.888 | Q -0.759 | C -0.368 | R -0.844 | W -0.868 | L -0.745 | E -0.815 | I -1.01 | H -0.784 | M -0.735 | P -0.81 | Y -0.353 | N -0.638 | K -1.05 | D -0.558 | T -0.92 | A -0.536
A18: D -1.2 | H -0.873 | V -0.443 | M -0.643 | N -0.863 | K -0.554 | Y -0.703 | R -0.913 | W -0.817 | L -0.627 | S -0.988 | P -0.912 | G 0.438 | E -0.439 | Q -0.542 | T -1 | C -0.32 | F -0.902
F26: S -0.959
E17: S -0.428 | Q -0.557 | P -0.756 | G -0.772 | K -0.197 | M -0.333 | H -0.737 | Y -0.39 | C -0.589 | A -0.598 | I -0.591 | D -0.477 | R -0.304 | N -0.668 | V -0.584 | L -0.175 | F -0.515
D32: S 1.09
F33: L -0.169
